Assay results taken from IntAct's records for PubMed 26779609.

B1: CDKN2AIP N-terminal-like protein (Homo sapiens), Q96HQ2 (parent)
chain: MVGGEAAAAVEELVSGVRQAADFAEQFRSYSESEKQWKARMEFILRHLPDYRDPPDGSGRLDQLLSLSMVWANHLFLGCSYNKDLLDKVMEMADGIEVEDLPQFTTRSELMKKHQS
partner: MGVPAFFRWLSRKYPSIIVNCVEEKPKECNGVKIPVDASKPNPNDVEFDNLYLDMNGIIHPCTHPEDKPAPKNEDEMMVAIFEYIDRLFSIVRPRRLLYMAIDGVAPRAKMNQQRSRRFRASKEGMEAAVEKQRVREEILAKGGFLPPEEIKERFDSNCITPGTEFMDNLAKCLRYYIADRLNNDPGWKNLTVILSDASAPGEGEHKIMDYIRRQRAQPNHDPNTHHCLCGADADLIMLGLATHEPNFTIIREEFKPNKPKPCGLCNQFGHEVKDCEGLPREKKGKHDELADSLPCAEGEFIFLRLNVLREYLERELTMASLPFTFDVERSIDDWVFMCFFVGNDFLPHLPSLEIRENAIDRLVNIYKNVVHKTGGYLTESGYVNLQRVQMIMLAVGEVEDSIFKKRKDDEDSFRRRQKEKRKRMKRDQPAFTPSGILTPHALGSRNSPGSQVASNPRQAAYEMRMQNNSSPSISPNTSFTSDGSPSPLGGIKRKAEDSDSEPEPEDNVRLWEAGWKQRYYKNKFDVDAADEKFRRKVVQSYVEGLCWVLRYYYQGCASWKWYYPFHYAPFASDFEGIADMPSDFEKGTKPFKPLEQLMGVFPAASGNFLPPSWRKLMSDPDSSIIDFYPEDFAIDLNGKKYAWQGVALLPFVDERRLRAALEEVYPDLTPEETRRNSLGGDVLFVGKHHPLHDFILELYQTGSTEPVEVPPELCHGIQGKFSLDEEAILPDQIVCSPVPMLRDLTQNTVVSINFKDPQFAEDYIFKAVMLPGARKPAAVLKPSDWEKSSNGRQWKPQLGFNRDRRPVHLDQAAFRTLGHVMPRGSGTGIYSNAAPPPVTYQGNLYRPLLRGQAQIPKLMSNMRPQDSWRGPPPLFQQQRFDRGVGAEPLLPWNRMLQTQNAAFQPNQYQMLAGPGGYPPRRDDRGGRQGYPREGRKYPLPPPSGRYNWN
B2: Partner of xrn-2 protein 1 (Caenorhabditis elegans), Q21738 (parent)
chain: MGKLEDVEAEKKLWESDDAWELRKAFMLAHYDDYPKIQLQCLSQLFINVTLLGCEYSQTLMQKIRTMGAGIAANKDRTKTGSYVKASAAKKRQAVKTSDLEGASDESKKVKMEKSPSPVARESFDERLGKLKASLAMTPHHLTGEQMMKTATNSCLMKWHVNKINQKIEITIDRYVAFRHTFSQYCVDPRDCAINTLIESILSCDAAVHEESYEIRFDGVPVDECYAKSVTRRLAKIKSAVSNGAHTVKGLTTYLDAVNMSMIQNTQKLEGWSQQLDLVTADLLLSSRVLSSTECTKPAMATIANQMSEDVCQLILNDKINVINSMKSHSSLAFQ
partner: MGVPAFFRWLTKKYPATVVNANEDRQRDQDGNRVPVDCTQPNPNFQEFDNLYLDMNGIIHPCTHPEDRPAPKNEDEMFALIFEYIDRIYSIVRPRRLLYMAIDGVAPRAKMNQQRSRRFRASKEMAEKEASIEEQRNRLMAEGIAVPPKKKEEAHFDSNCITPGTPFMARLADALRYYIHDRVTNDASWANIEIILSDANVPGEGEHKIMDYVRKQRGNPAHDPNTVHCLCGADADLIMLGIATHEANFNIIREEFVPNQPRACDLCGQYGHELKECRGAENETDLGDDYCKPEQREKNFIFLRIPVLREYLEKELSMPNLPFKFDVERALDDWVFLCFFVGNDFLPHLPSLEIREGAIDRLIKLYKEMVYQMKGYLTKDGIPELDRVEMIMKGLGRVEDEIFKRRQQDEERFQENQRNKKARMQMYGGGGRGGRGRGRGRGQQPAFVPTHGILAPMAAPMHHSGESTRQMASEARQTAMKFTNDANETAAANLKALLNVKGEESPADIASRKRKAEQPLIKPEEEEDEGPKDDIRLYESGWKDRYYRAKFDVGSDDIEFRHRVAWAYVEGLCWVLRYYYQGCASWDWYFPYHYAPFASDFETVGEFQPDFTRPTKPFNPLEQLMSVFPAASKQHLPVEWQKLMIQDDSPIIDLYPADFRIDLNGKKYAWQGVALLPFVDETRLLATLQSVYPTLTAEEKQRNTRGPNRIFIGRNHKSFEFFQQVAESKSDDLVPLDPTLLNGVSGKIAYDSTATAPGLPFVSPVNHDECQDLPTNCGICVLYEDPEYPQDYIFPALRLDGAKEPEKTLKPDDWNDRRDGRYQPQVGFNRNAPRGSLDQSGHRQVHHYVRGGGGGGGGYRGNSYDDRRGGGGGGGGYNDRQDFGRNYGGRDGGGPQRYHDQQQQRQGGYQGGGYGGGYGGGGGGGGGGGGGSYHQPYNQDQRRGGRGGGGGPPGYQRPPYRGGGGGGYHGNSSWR

Variants of: B1
Conditions: with xrn2_human XRN2, Q9H0D6

effect of a mutation on the interaction | Variant
disrupting interaction strength | MVGGEAAAAVEELVSGVRQAADFAEQFRSYSESEKQWKARMEFILRHLPDYRDPPDGSGRLDQLLSLSMVWANHLFLGCSANKDLLDKVMEMADGIEVEDLPQFTTRSELMKKHQS [Y81A]

Variants of: B2
Conditions: with xrn2_caeel xrn-2, Q9U299

effect of a mutation on the interaction | Variant
disrupting interaction strength | MGKLEDVEAEKKLWESDDAWELRKAFMLAHYDDYPKIQLQCLSQLFINVTLLGAEYSQTLMQKIRTMGAGIAANKDRTKTGSYVKASAAKKRQAVKTSDLEGASDESKKVKMEKSPSPVARESFDERLGKLKASLAMTPHHLTGEQMMKTATNSCLMKWHVNKINQKIEITIDRYVAFRHTFSQYCVDPRDCAINTLIESILSCDAAVHEESYEIRFDGVPVDECYAKSVTRRLAKIKSAVSNGAHTVKGLTTYLDAVNMSMIQNTQKLEGWSQQLDLVTADLLLSSRVLSSTECTKPAMATIANQMSEDVCQLILNDKINVINSMKSHSSLAFQ [C54A]
disrupting interaction strength | MGKLEDVEAEKKLWESDDAWELRKAFMLAHYDDYPKIQLQCLSQLFINVTLLGCEASQTLMQKIRTMGAGIAANKDRTKTGSYVKASAAKKRQAVKTSDLEGASDESKKVKMEKSPSPVARESFDERLGKLKASLAMTPHHLTGEQMMKTATNSCLMKWHVNKINQKIEITIDRYVAFRHTFSQYCVDPRDCAINTLIESILSCDAAVHEESYEIRFDGVPVDECYAKSVTRRLAKIKSAVSNGAHTVKGLTTYLDAVNMSMIQNTQKLEGWSQQLDLVTADLLLSSRVLSSTECTKPAMATIANQMSEDVCQLILNDKINVINSMKSHSSLAFQ [Y56A]
